Experimental data: PMC6547438, “Bacillus subtilis DisA regulates RecA-mediated DNA strand exchange” (Nucleic Acids Research, 2019)

B1: His-tagged DisA (enzyme, Bacillus subtilis, UniProt P37573 1-360, looked up)
chain: MEKEKKGAKHELDLSSILQFVAPGTPLRAGMENVLRANTGGLIVVGYNDKVKEVVDGGFHINTAFSPAHLYELAKMDGAIILSDSGQKILYANTQLMPDATISSSETGMRHRTAERVAKQTGCLVIAISERRNVITLYQENMKYTLKDIGFILTKANQAIQTLEKYKTILDKTINALNALEFEELVTFSDVLSVMHRYEMVLRIKNEINMYIKELGTEGHLIKLQVIELITDMEEEAALFIKDYVKEKIKDPFVLLKELQDMSSYDLLDDSIVYKLLGYPASTNLDDYVLPRGYRLLNKIPRLPMPIVENVVEAFGVLPRIIEASAEELDEVEGIGEVRAQKIKKGLKRLQEKHYLDRQL
B2: RecA (native, untagged) (enzyme, Bacillus subtilis, UniProt P16971 1-348, looked up)
chain: MSDRQAALDMALKQIEKQFGKGSIMKLGEKTDTRISTVPSGSLALDTALGIGGYPRGRIIEVYGPESSGKTTVALHAIAEVQQQGGQAAFIDAEHALDPVYAQKLGVNIEELLLSQPDTGEQALEIAEALVRSGAVDIVVVDSVAALVPKAEIEGDMGDSHVGLQARLMSQALRKLSGAINKSKTIAIFINQIREKVGVMFGNPETTPGGRALKFYSSVRLEVRRAEQLKQGNDVMGNKTKIKVVKNKVAPPFRTAEVDIMYGEGISKEGEIIDLGTELDIVQKSGSWYSYEEERLGQGRENAKQFLKENKDIMLMIQEQIREHYGLDNNGVVQQQAEETQEELEFEE
notes: Bacillus subtilis recombinase RecA; purified protein of 38.0 kDa; The printed mass of 38.0 kDa fits the whole protein; also called native RecA; apo RecA; source: B. subtilis BG214 bearing pBT61-borne recA, over-expressed and purified

Experiments:
[1] = target: B2; test: cell-based or functional assay
[2] = target: B1; test: pull-down; His-tagged DisA and native RecA (1.5 μg each) loaded on a 50-μl Ni2+ microcolumn, room temperature, Buffer A (50 mM Tris-HCl pH 7.5, 50 mM NaCl, 10 mM MgCl2, 5% glycerol) with 20 mM imidazole, without ssDNA and ATP; eluted with 1 M NaCl and 400 mM imidazole; SDS-PAGE, Coomassie and Western blot; conditions: both partners purified

Binder | RecA-mediated three-strand DNA exchange with SsbA and RecO in ATPγS, fold reduction at a DisA:RecA molar ratio of 1:48 [1] | binding result [2]
B1 | ~18 fold | 
B2 |  | binds
